Measured values: patent US20240052033A1 (Molecular Partners, published 2024)
Changes are numbered by the printed parent chain. Each block holds one binder with its values, some of them ahead of it.

Columns and labels:
[1] = target: T1, human CD3 on primary human pan-T cells (human, UniProt P07766 23-207; P09693 23-182; P04234 22-171; P20963 22-164); assay: Mirrorball laser scanning imaging cytometry on primary human pan-T cells with 600 µM HSA; detection with anti-penta-His Alexa Fluor 488; Median (FL-2 Mean Intensity) [A]
T1 construct: whole, on cells; Native CD3 complex (pairs εγ, εδ, ζζ) on T cells isolated from human PBMCs; it is associated with the T cell receptor on the cells; also called CD3 on Pan-T cells; CD3 on T cells

[2] = target: T1, human CD3 on primary human pan-T cells; assay: Mirrorball laser scanning imaging cytometry on primary human pan-T cells, 600 µM HSA, anti-penta-His Alexa Fluor 488 detection
[3] = target: biotinylated human scCD3εγ (scCD3εγ_Avi-Bio): single-chain human CD3ε/CD3γ extracellular domains joined by a 26 amino acid linker, with a C-terminal Avi-tag (human); assay: SPR (ProteOn), biotinylated scCD3εγ on NLC chip, DARPin as analyte 4-64 nM, PBS with 0.005% Tween 20; n = 6
[4] = target: biotinylated human scCD3εγ (scCD3εγ_Avi-Bio): single-chain human CD3ε/CD3γ extracellular domains joined by a 26 amino acid linker, with a C-terminal Avi-tag (human); assay: SPR (ProteOn), biotinylated scCD3εγ on NLC chip, DARPin as analyte 4-64 nM, PBS with 0.005% Tween 20; n = 4
[5] = target: biotinylated human scCD3εγ (scCD3εγ_Avi-Bio): single-chain human CD3ε/CD3γ extracellular domains joined by a 26 amino acid linker, with a C-terminal Avi-tag (human); assay: SPR (ProteOn), biotinylated scCD3εγ on NLC chip, DARPin as analyte 4-64 nM, PBS with 0.005% Tween 20; n = 2
[6] = target: T1, human CD3 on primary human pan-T cells; assay: Mirrorball laser scanning imaging cytometry on primary human pan-T cells with 600 µM HSA; detection with anti-penta-His Alexa Fluor 488; Median (FL-2 Mean Intensity) [B]
Procedure: The determination of CD3 binding was performed with primary human T cells using Mirrorball laser scanning imaging cytometry. Therefore, primary T cells were isolated from human peripheral blood mononuclear cells (PBMCs) using a pan-T cell purification kit (Miltenyi Biotec). […] To generate the tri-specific TCE proteins, DARPin® protein #1, DARPin® protein #2, DARPin® protein #3 and DARPin® protein #4, respectively, was subcloned and expressed as described above into a derivative of the pQE30 (Qiagen) expression vector, encoding an N-terminal His-tag, followed by two different TAA-specific ankyrin repeat domains (in the order TAA2- and TAA3-specific, respectively), and then followed by one of the CD3-specific ankyrin repeat domains of the invention. […] After washing, CD3 binding was detected by 1:100-diluted anti-penta-His Alexa Fluor 488 antibody (Qiagen). […] Median of mean fluorescence intensities of Alexa Fluor 488 binding on far-red counterstained cells were measured by Mirrorball using Cellista software (SPT Labtech) and data was plotted using GraphPad Prism 8.

[7] = target: T2, biotinylated human scCD3εγ (scCD3εγ_Avi-Bio): single-chain human CD3ε/CD3γ extracellular domains joined by a … (human, biotinylated in vitro with BirA at the C-terminal Avi-tag); assay: ribosome display selection; crude extract HTRF on recombinant human CD3 target
T2 construct: monomeric; also called recombinant human CD3 target; human CD3 (SPR)
T2 chain: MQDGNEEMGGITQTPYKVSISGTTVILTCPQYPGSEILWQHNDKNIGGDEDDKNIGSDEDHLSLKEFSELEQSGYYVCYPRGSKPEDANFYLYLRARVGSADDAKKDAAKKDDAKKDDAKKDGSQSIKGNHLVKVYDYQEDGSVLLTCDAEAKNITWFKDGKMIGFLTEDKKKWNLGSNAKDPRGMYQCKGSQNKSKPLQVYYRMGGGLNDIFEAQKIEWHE
From the text: Using ribosome display (Hanes, J. and Plückthun, A., PNAS 94, 4937-42, 1997), many ankyrin repeat proteins with binding specificity for human scCD3 were selected from DARPin® libraries similar as described by Binz et al. 2004 (loc. cit.). […] For example, the ankyrin repeat domain of SEQ ID NO: 1 constitutes an amino acid sequence of a selected binding protein comprising an ankyrin repeat domain with binding specificity for scCD3. Individual ankyrin repeat modules from such ankyrin repeat domains with binding specificity to scCD3 are provided, e.g., in SEQ ID NO: 5 to 9.

T1 sequence (P07766 23-207, chain 1 of 4): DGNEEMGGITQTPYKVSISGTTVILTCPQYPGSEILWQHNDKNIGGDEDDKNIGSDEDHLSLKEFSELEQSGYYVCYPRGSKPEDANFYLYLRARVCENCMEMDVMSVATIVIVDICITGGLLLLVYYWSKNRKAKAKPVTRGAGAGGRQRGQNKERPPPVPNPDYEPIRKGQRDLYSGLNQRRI
T1 sequence (P09693 23-182, chain 2 of 4): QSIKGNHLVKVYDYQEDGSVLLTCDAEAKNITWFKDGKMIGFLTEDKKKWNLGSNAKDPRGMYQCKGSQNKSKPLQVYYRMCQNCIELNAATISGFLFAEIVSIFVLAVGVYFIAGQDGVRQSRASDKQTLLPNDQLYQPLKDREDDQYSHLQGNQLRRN
T1 sequence (P04234 22-171, chain 3 of 4): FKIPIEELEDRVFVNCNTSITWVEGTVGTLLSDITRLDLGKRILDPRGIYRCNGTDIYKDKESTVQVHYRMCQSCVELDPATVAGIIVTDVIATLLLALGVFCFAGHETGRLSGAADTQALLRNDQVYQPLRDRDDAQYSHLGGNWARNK
T1 sequence (P20963 22-164, chain 4 of 4): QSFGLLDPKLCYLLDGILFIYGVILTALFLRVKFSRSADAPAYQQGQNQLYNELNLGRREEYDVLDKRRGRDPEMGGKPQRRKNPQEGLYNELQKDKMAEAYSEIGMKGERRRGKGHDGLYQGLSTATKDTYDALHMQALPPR

B1: DARPin® protein #4 with TAA2/TAA3 domains (trispecific format: His-tag, TAA2-specific domain, TAA3-specific domain, CD3-specific domain) (designed binder, part only; not given: CD123 and CD33 DARPin domains, not shown: small tags and cut ends)
chain, part: MRGSHHHHHHGSGSPTPTPTTPTPTPTTPTPTPTGSPTPTPTTPTPTPTTPTPTPTDLGQKLLEAAWAGQLDEVRILLKAGADVNAKNSRGWTPLHTAAQTGHLEIFEVLLKAGADVNAKTNKRVTPLHLAAALGHLEIVEVLLKAGADVNARDTWGTTPADLAAKYGHRDIAEVLQKAA
EC50 (read off the curve) [1]: 6 nM
EC50 [2]: 5 to 15 nM
Kd [3]: 6 nM
koff [3]: 0.00041 s⁻¹
kon [3]: 82000 M⁻¹ s⁻¹

B3: DARPin® protein #2 with TAA2/TAA3 domains (trispecific format: His-tag, TAA2-specific domain, TAA3-specific domain, CD3-specific domain) (designed binder, part only; not given: CD123 and CD33 DARPin domains, not shown: small tags and cut ends)
chain, part: B1 chain, part with L71D, I76E, T121D, N122D, R124G, R153Q, T155S, R170E
EC50 [2]: 250 to 400 nM
Kd [5]: 35 nM
koff [5]: 0.0015 s⁻¹
kon [5]: 49000 M⁻¹ s⁻¹

B4: DARPin® protein A (with HSA) (designed binder)
single chain: DLGQKLLEAAWAGQDDEVRELLKAGADVNAKDSQGWTPLHTAAQTGHLEIFEVLLKAGADVNAKDDKGVTPLHLAAALGHLEIVEVLLKAGADVNAQDSWGTTPADLAAKYGHEDIAEVLQKAA
notes: The MOLECULES list holds the half-life extended forms of B, C and D only; also called DARPin® protein A with half-life extension
binding result [6]: no binding (tested: about 3000 nM)

B6: DARPin® protein D with half-life extension (tetraspecific format: His-tag, HSA-specific domain, TAA2-specific domain, TAA3-specific domain, DARPin® protein #4) (designed binder, not shown: large carriers; small tags and cut ends)
chain: B4 single chain with D15L, E20I, D32N, Q34R, D65T, D66N, G68R, Q97R, S99T, E114R
notes: also called half-life extended DARPin® protein D; DARPin® protein #H
EC50 (read off the curve) [6]: ~20 nM

Now from value to binder:

Kd [4]: 15 nM
koff [4]: 0.0013 s⁻¹
kon [4]: 89000 M⁻¹ s⁻¹
EC50 [2]: 50 to 100 nM
B2: DARPin® protein #3 with TAA2/TAA3 domains (trispecific format: His-tag, TAA2-specific domain, TAA3-specific domain, CD3-specific domain) (designed binder, part only; not given: CD123 and CD33 DARPin domains, not shown: small tags and cut ends)
chain, part: B1 chain, part with L71D, I76E, T121N, N122D, T155S, R170Q

binding result [7]: binds
B5: SEQ ID NO 1 (designed binder)
chain: B4 single chain
notes: also called CD3-specific domain of DARPin® protein #1
